Results as given in US20230346885A1 (published 2023).
Substitutions are numbered along the chain they refer to. Blank lines part the entries; values can stand above or below the binder they belong to.

What was measured:
Experiment in all cases: binding, other
DCAF4L2 peptide on HLA = molecular target: T1, DCAF4L2 peptide on HLA (human)
T1 peptide: ILQDGQFLV

HTR3A peptide on HLA [1] = molecular target: T2, HTR3A peptide on HLA (human)
T2 peptide: SLAETIFIV

KLK3 peptide on HLA = molecular target: T3, KLK3 peptide on HLA (human)
T3 peptide: KVMDLPTQEPAL

HOXB13 peptide on HLA [2] = molecular target: T4, HOXB13 peptide on HLA (human)
T4 peptide: YLDVSVVQT

HTR3A peptide on HLA [3] = molecular target: T5, HTR3A peptide on HLA (human)
T5 peptide: AILNVDEKNQV

KLK4 peptide on HLA [4] = molecular target: T6, KLK4 peptide on HLA (human)
T6 peptide: KLYDPLYHPSM

HOXB13 peptide on HLA [5] = molecular target: T7, HOXB13 peptide on HLA (human)
T7 peptide: SLSERQITI

KLK4 peptide on HLA [6] = molecular target: T8, KLK4 peptide on HLA (human)
T8 peptide: FQNSYTIGL

B1: TCR of SEQ ID NOs 359 and 360 (TCR, V domains shown)
Valpha: KQEVTQIPAALSVPEGENLVLNCSFTDSAIYNLQWFRQDPGKGLTSLLLIQSSQREQTSGRLNASLDKSSGRSTLYIAASQPGDSATYLCAVRPTRGDSWGKLQFGAGTQVVVTP
Vbeta: NAGVTQTPKFQVLKTGQSMTLQCAQDMNHNSMYWYRQDPGMGLRLIYYSASEGTTDKGEVPNGYNVSRLNKREFSLRLESAAPSQTSVYFCASSYSLLGNEAFFGQGTRLTVV
binding result (DCAF4L2 peptide on HLA): recognises

B2: TCR of SEQ ID NOs 387 and 388 (TCR, V domains shown)
Valpha: KQEVTQIPAALSVPEGENLVLNCSFTDSAIYNLQWFRQDPGKGLTSLLLIQSSQREQTSGRLNASLDKSSGRSTLYIAASQPGDSATYLCAVSGDSWGKLQFGAGTQVVVTP
Vbeta: B1 Vbeta with S96W, L97G, L98P, G99N, N100T
binding result (HTR3A peptide on HLA [1]): recognises

B3: TCR of SEQ ID NOs 391 and 392 (TCR, V domains shown)
Valpha: QKEVEQNSGPLSVPEGAIASLNCTYSDRGSQSFFWYRQYSGKSPELIMSIYSNGDKEDGRFTAQLNKASQYVSLLIRDSQPSDSATYLCAVNSPGNARLMFGDGTQLVVKP
Vbeta: NAGVTQTPKFQVLKTGQSMTLQCAQDMNHEYMSWYRQDPGMGLRLIHYSVGAGITDQGEVPNGYNVSRSTTEDFPLRLLSAAPSQTSVYFCASSYWRGGLEQYFGPGTRLTVT
binding result (KLK3 peptide on HLA): recognises

B5: TCR of SEQ ID NOs 377 and 378 (TCR, V domains shown)
Valpha: KQEVTQIPVALSVPEGENLVLNCSFTDSAIYNLQWFRQDPGKGLTSLLLIQSSQREQTSGRLNASLDKSSGRSTLYIAASQPGDSATYLCAVTDSWGKLQFGAGTQVVVTP
Vbeta: NAGVTQTPKFQVLKTGQSMTLQCAQDMNHNSMYWYRQDPGMGLRLIYYSASEGTTDKGEVPNGYNVSRLNKREFSLRLESAAPSQTSLYFCASSEGPADTYGYTFGSGTRLTVV
binding result (HTR3A peptide on HLA [3]): recognises

B7: TCR of SEQ ID NOs 365 and 366 (TCR, V domains shown)
Valpha: KQEVTQIPAALSVPEGENLVLNCSFTDSAIYNLQWFRQDPGKGLTSLLLIQSSQREQTSGRLNASLDKSSGRSTLYIAASQPGDSATYLCAVGGYNKLIFGAGTRLAVHP
Vbeta: NAGVTQTPKFQVLKTGQSMTLQCAQDMNHNSMYWYRQDPGMGLRLIYYSASEGTTDKGEVPNGYNVSRSTTEDFPLRLLSAAPSQTSVYFCASSYQGTGELFFGEGSRLTVL
binding result (HOXB13 peptide on HLA [5]): recognises

B8: TCR of SEQ ID NOs 369 and 370 (TCR, V domains shown)
Valpha: B7 Valpha with N96Q, L98V, I99T, A102T, R105K, A107Q, H109I
Vbeta: NAGVTQTPKFQVLKTGQSMTLQCAQDMNHNSMYWYRQDPGMGLRLIYYSASEGTTDKGEVPNGYNVSRSTTEDFPLRLLSAAPSQTSVYFCASSYQGGNEKLFFGSGTQLSVL
binding result (HOXB13 peptide on HLA [5]): recognises

B9: TCR of SEQ ID NOs 375 and 376 (TCR, V domains shown)
Valpha: B7 Valpha with G93R, G94H, Y95D, N96Y, I99S, R105T, L106V, A107T, H109R, P110A
Vbeta: NAGVTQTPKFQVLKTGQSMTLQCAQDMNHEYMSWYRQDPGMGLRLIHYSVGAGITDQGEVPNGYNVSRSTTEDFPLRLLSAAPSQTSVYFCASSRIGQRASFFGSGTRLTVV
binding result (HOXB13 peptide on HLA [2]): recognises

B10: TCR of SEQ ID NOs 397 and 398 (TCR, V domains shown)
Valpha: B7 Valpha with V92A, N96Q, L98V, I99T, A102T, R105K, A107Q, H109I
Vbeta: NAGVTQTPKFRILKIGQSMTLQCTQDMNHNYMYWYRQDPGMGLKLIYYSVGAGITDKGEVPNGYNVSRSTTEDFPLRLLSAAPSQTSVYFCASRRPTGELFFGEGSRLTVL
binding result (KLK4 peptide on HLA [4]): recognises

B11: TCR of SEQ ID NOs 361 and 362 (TCR, V domains shown)
Valpha: KQEVTQIPAALSVPEGENLVLNCSFTDSAIYNLQWFRQDPGKGLTSLLLIQSSQREQTSGRLNASLDKSSGRSTLYIAASQPGDSATYLCAVDTGRRALTFGSGTRLQVQP
Vbeta: NAGVTQTPKFQVLKTGQSMTLQCAQDMNHEYMYWYRQDPGMGLRLIHYSVGEGTTAKGEVPDGYNVSRLKKQNFLLGLESAAPSQTSVYFCASRDQINEKLFFGSGTQLSVL
binding result (DCAF4L2 peptide on HLA): recognises

B12: TCR of SEQ ID NOs 363 and 364 (TCR, V domains shown)
Valpha: B11 Valpha with D93N, T94L, R96A, R97Q, A98K, T100V, S103Q, Q108T, V109I, Q110N
Vbeta: NAGVTQTPKFRILKIGQSMTLQCTQDMNHNYMYWYRQDPGMGLKLIYYSVGAGITDKGEVPNGYNVSRSTTEDFPLRLELAAPSQTSVYFCASSSFDRDEAFFGQGTKLTVV
binding result (DCAF4L2 peptide on HLA): recognises

B14: TCR of SEQ ID NOs 399 and 400 (TCR, V domains shown)
Valpha: KQEVTQIPAALSVPEGENLVLNCSFTDSAIYNLQWFRQDPGKGLTSLLLIRSSQREQTSGRLNASLDKSSGRSTLYIAASQPGDSATYLCAVMSSQGGSEKLVFGKGTKLTVNP
Vbeta: NAGVTQTPKFRVLKTGQSMTLLCAQDMNHEYMYWYRQDPGMGLRLIHYSVGEGTTAKGEVPDGYNVSRLKKQNFLLGLESAAPSQTSVYFCASKGLVADTIYFGEGSWLTVV
binding result (KLK4 peptide on HLA [4]): recognises

B17: TCR of SEQ ID NOs 381 and 382 (TCR, V domains shown)
Valpha: KQEVTQIPAALSVPEGENLVLNCSFTDSAIYNLQWFRQDPGKGLTSLLLIQSSQREQTSGRLNASLDKSSGRSTLYIAASQPGDSATYLCAVRPADSWGKLQFGAGTQVVVTP
Vbeta: B10 Vbeta with L79E, S80L, R94S, R95Y, P96S, T97L
binding result (HTR3A peptide on HLA [3]): recognises

B18: TCR of SEQ ID NOs 383 and 384 (TCR, V domains shown)
Valpha: B17 Valpha with R93L, P94T, A95T
Vbeta: NAGVTQTPKFRILKIGQSMTLQCTQDMNHNSMYWYRQDPGMGLRLIYYSASEGTTDKGEVPNGYNVSRLNKREFSLRLESAAPSQTSVYFCASSELIGTVDYSNQPQHFGDGTRLSIL
binding result (HTR3A peptide on HLA [1]): recognises

B19: TCR of SEQ ID NOs 389 and 390 (TCR, V domains shown)
Valpha: QKEVEQNSGPLSVPEGAIASLNCTYSDRGSQSFFWYRQYSGKSPELIMSIYSNGDKEDGRFTAQLNKASQYVSLLIRDSQPSDSATYLCAVWGKSGGYNKLIFGAGTRLAVHP
Vbeta: NAGVTQTPKFGILKTGQSMTLQCAQDMNHEYMSWYRQDPGMGLRLIHYSVGAGITDKGEVPNGYNVSRSTTEDFPLRLELAAPSQTSVYFCASSYSSPLRQDNSPLHFGNGTRLTVT
binding result (KLK3 peptide on HLA): recognises

B21: TCR of SEQ ID NOs 393 and 394 (TCR, V domains shown)
Valpha: AQSVTQLDSHVSVSEGTPVLLRCNYSSSVPPYLFWYVQYPNQGLQLLLKYTTGATLVKGINGFEAEFKKSETSFHLTKPSAHMSDAAEYFCAVSEDGNKLVFGAGTILRVKS
Vbeta: AAGVIQSPRHLIKEKRETATLKCYPIPRHDTVYWYQQGPGQDPQFLISFYEKMQSDKGSIPDRFSAQQFSDYHSELNMSSLELGDSALYFCASRLTGVSGEGDYGYTFGSGTRLTVV
binding result (KLK3 peptide on HLA): recognises

Other lines, results leading:

binding result (HOXB13 peptide on HLA [2]): recognises
B4: TCR of SEQ ID NOs 373 and 374 (TCR, V domains shown)
Valpha: KQEVTQIPAALSVPEGENLVLNCSFTDSAIYNLQWFRQDPGKGLTSLLLIQSSQREQTSGRLNASLDKSSGRSTLYIAASQPGDSATYLCAANDPMDSSYKLIFGSGTRLLVRP
Vbeta: NAGVTQTPKFRVLKTGQSMTLLCAQDMNHEYMYWYRQDPGMGLRLIHYSVGEGTTAKGEVPDGYNVSRLKKQNFLLGLESAAPSQTSVYFCASSPLDGWNYGYTFGSGTRLTVV

binding result (KLK4 peptide on HLA [4]): recognises
B6: TCR of SEQ ID NOs 395 and 396 (TCR, V domains shown)
Valpha: B5 Valpha with V9A, T93L
Vbeta: NAGVTQTPKFRVLKTGQSMTLLCAQDMNHEYMYWYRQDPGMGLRLIHYSVGEGTTAKGEVPDGYNVSRLKKQNFLLGLESAAPSQTSVYFCASSGLLSPDTQYFGPGTRLKVL

binding result (KLK4 peptide on HLA [6]): recognises
B13: TCR of SEQ ID NOs 407 and 408 (TCR, V domains shown)
Valpha: KQEVTQIPAALSVPEGENLVLNCSFTDSAIYNLQWFRQDPGKGLTSLLLIQSSQREQTSGRLNASLDKSSGRSTLYIAASQPGDSATYLCAVRSYNTDKLIFGTGTRLQVFP
Vbeta: B12 Vbeta with S95Y, F96S, D97S, R98W, D99T, K108R

binding result (HTR3A peptide on HLA [3]): recognises
B15: TCR of SEQ ID NOs 379 and 380 (TCR, V domains shown)
Valpha: KQEVTQIPAALSVPEGENLVLNCSFTDSAIYNLQWFRQDPGKGLTSLLLIQSSQREQTSGRLNASLDKSSGRSTLYIAASQPGDSATYLCAVSPFDLYGQNFVFGPGTRLSVLP
Vbeta: NAGVTQTPKFQVLKTGQSMTLQCAQDMNHNSMYWYRQDPGMGLRLIYYSASEGTTDKGEVPNGYNVSRLNKREFSLRLESAAPSQTSVYFCASRGTLFDPQHFGDGTRLSIL

binding result (HOXB13 peptide on HLA [2]): recognises
B16: TCR of SEQ ID NOs 371 and 372 (TCR, V domains shown)
Valpha: KQEVTQIPAALSVPEGENLVLNCSFTDSAIYNLQWFRQDPGKGLTSLLLIQSSQREQTSGRLNASLDKSSGRSTLYIAASQPGDSATYLCAVRHDYQLSFGAGTTVTVRA
Vbeta: B9 Vbeta

binding result (HTR3A peptide on HLA [1]): recognises
B20: TCR of SEQ ID NOs 385 and 386 (TCR, V domains shown)
Valpha: B2 Valpha with S93L, G94T
Vbeta: NAGVTQTPKFRVLKTGQSMTLLCAQDMNHEYMYWYRQDPGMGLRLIHYSVGEGTTAKGEVPDGYNVSRLKKQNFLLGLESAAPSQTSVYFCASSYWGGNTEAFFGQGTRLTVV

binding result (HOXB13 peptide on HLA [5]): recognises
B22: TCR of SEQ ID NOs 367 and 368 (TCR, V domains shown)
Valpha: KQEVTQIPAALSVPEGENLVLNCSFTDSAIYNLQWFRQDPGKGLTSLLLIQSSQREQTSGRLNASLDKSSGRSTLYIAASQPGDSATYLCAVRPHGQNFVFGPGTRLSVLP
Vbeta: NAGVTQTPKFRVLKTGQSMTLLCAQDMNHEYMYWYRQDPGMGLRLIHYSVGEGTTDKGEVPNGYNVSRLNKREFSLRLESAAPSQTSVYFCASSSLARETQYFGPGTRLLVL
